Source: the nanobody polyreactivity screen of Harvey et al. (2022)

Assay: yeast display, Sf9 membrane polyspecificity reagent, FACS + sequencing; frameworks hold sequencing errors
Method in brief: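 Galactose induction of a Saccharomyces cerevisiae BJ5465 synthetic nanobody display library ran 36–48 hours. The cells were then stained for 1 hour at 4 °C with 10% biotinylated, detergent-solubilized Sf9 membrane reagent, pulled down on streptavidin microbeads and FACS-sorted into low and high (top ~1%) gates on expression and reagent-binding fluorescence. Labels for polyreactivity follow the gate of origin.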

Row | Sequence | polyreactivity (PSR sort gate)
1 | QVQLVESGGGLVQAGGSLRLSCAASGSTYEYNAMGWSRQAPGKERELVASSTNYADSVKGRFTISRDNAKNTVYLQMNSLKPEDTAVYYCAREQCVNRNHDYWGQGTQVTVSS | low polyreactivity
2 | QVQLVESGGGLVQAGGSLRLSCAASGSTYEYNAMGWYRQAPGKERELVAGISSGGSTYYADSVKGRFTISRDNAKNTVYLQMNSLKPEDTAVYYCATSEASVATWDRYTELDYWGQGSQVTVSS | low polyreactivity
3 | QVQLVESGGGLVQAGGSLRLSCAASGSTYGDNAMGWYRQAPGKERELVAAISSGGGSTYYADSVKGRFTISRDNAKNTVYLQMYSLNPEDTAVYYCGADGTLTLYRYILDYWGQGYQVTVSS | low polyreactivity
4 | QVQLVESGGGLVQAGGSLRLSCAASGSTYGGNAMGWYRQAPGKERELVAAISRSGSRTYYADSVKGRFTISRDNAKNTVYLQMNSLKPEDTAVYYCAARRWVWTVRYNYWGQGTQVTVSS | high polyreactivity
5 | QVQLVESGGGLVQAGGSLRLSCAASGSTYGRNAMGWYRQATGKERELVAAINSGGGTYYADSVKGRFTISRDNAKNTVYLQMYSLKPEDTAVYYCAAARRYGKYDYWGQGTQVTVSS | low polyreactivity
6 | QVQLVESGGGLVQAGGSLRLSCAASGSTYGWNAMGWSRQAPGKERELVAAISSSGGITYYADSVKGRFTISRDNAKNTVYLQMNSLKPEDTAVYYCAAERDVDWVNYWGQGTQVTVSS | low polyreactivity
7 | QVQLVESGGGLVQAGGSLRLSCAASGSTYGYAMGWYRQAPGKEMKLVARITWRGGSTSYADSVKGRFTITRDNAKNTVYLQMNSLKPEDTAVYYCADGFYFQVYTYVRKRYYYWGQGTQVTVSS | high polyreactivity
8 | QVQLVESGGGLVQAGGSLRLSCAASGSTYGYYTMGWYRQAPGKERELVAAITWSGGSTYYADSVKGRFTISRDIAKNTVYLQMNSLKPEDTAVYYCAADDYWTPFGYWGQCTQVTVSS | low polyreactivity
9 | QVQLVESGGGLVQAGGSLRLSCAASGSTYRANAMGWYRQAPVKERELFASITNSGSSTYYADSVKGRFTISRDNAKNTVYLQMNSLKPEDTAVYYCNAERTIAGYYYWGQGTQVTVSS | low polyreactivity
10 | QVQLVESGGGLVQAGGSLRLSCAASGSTYRGYAMGWYRQAPGKERELVAAISWSGAATYYADSVKGRFTISRDNAKNTVYLQMNSLKPEDTAVYYCAKVARQNWFRYNYDYWGQGTQVTVSS | high polyreactivity
11 | QVQLVESGGGLVQAGGSLRLSCAASGSTYRWYAMGWYRQAPGKEREFVAAITWSGGRTYYADSVKGRFTISRDNAKNTVYLQMNSLKTEDTAVYYCNADDYGYSFNYWGQGTQVTVSS | high polyreactivity
12 | QVQLVESGGGLVQAGGSLRLSCAASGSTYRYNAMGWYRQAPGKERELVAAITSGGRTNYADSVKGRFTISRDNAKITVYLQMNSLKPEDTAVYYCAARRYGRNWHYDYWGQGTQVTVSS | high polyreactivity
13 | QVQLVESGGGLVQAGGSLRLSCAASGSTYSWYAMGWYRQAPGKERELVASISWRGGSTYYADSVKGRFTISRDNAKNTVYLQMNSLKPEDTAVYYCAADYYWKLFHEPPAVYDYDYWGQCTQVTVSS | low polyreactivity
14 | QVQLVESGGGLVQAGGSLRLSCAASGSTYTGYTMGWYRQAPGKERELVAAITYRGGSTYYADSVKGRFTISRDNAKNTVYLQMNSQKPEDTPVFYCAAVPEYYEYSPYDYWGQGTQVTVSS | low polyreactivity
15 | QVQLVESGGGLVQAGGSLRLSCAASGSTYTLNAMGWYRQAPGKERELVADITSGGGGTYYADSVKGRFTISRDNAKNTVYLQMNSLKPEDTAVYYCAADDFHSLLGYWYGLFDYWGQGTQVTVSS | low polyreactivity
16 | QVQLVESGGGLVQAGGSLRLSCAASGSTYTRYAMGWYRQATGKDRELVAAISRSGGSTYYADSVKGRFTISRDNAKNTVYLQMNSLKPEDTAVYYCRKFTLTTVTNYWGQGTQVTVSS | high polyreactivity
17 | QVQLVESGGGLVQAGGSLRLSCAASGSTYVYAMGLYRQAPGKERELVASISWSDSSTYYADSVKGRFTISRDNAKNTVYLQMNSLKPEDTAVYYCNADQGTRDSDYWGQGTQVTVSS | low polyreactivity
18 | QVQLVESGGGLVQAGGSLRLSCAASGSTYYPNAMGWYRQAPGKERELVAAISRGTRTKYADSVKGRFTISRDNAKNTVYLQMNSLKPEDTAVYYCAVLTYRGRFEYWGQGTQVTVSS | high polyreactivity
19 | QVQLVESGGGLVQAGGSLRLSCAASGSTYYYAMGWYRQAPGKEREFVAAISRDGSSTYYADSVKGRFTISRDNAKYTVYLQMNSLKPEDTAVYYCAASIIRFSTSADKLVTSRYYYWGQGTQVTVSS | high polyreactivity
20 | QVQLVESGGGLVQAGGSLRLSCAASGTFAFYTMGWYRQAPGKERELVAAISWDGGDTYYADSVKGRFTISRDNAKNNVYLQMNSLKPEDTAVYYCAAELGYYVYGSYYSYDYCGQGTQVTVSS | high polyreactivity
21 | QVQLVESGGGLVQAGGSLRLSCAASGTFAGNAMGWYRQAPGKERELVAAITTGGRTYYADSVKGRFTISRDNAKNTVYLQMNSLKPEDTAVYYCAADRIRDLEFDYWGQGTQVTVSS | low polyreactivity
22 | QVQLVESGGGLVQAGGSLRLSCAASGTFARYAMGWYRQAPGKERELVAAITRRGGNTYYADSVKGRFTISRDNAKNTVYLQMNSLKPEDTAVYYCARDYYYNYWWMDYWGQGTQVTVSS | high polyreactivity

Row | Sequence | polyreactivity (PSR sort gate)
23 | QVQLVESGGGLVQAGGSLRLSCAASGTFPVYTMGWYRQAPGKERELVAAISRNGGSTYYADSVKGRFTISRDNAKNTVYLQMNSLKPEDTAVYYCAAVKVKRPGMDYWGQGTQVTVSS | high polyreactivity
24 | QVQLVESGGGLVQAGGSLRLSCAASGTFSFYAMGWYRQAPGKERELVAAITRSSSRTYYADSVKGRFTISRDNAKNTVYLQMNSLKPEDTAVYYCRAKQVNRFDYWGQGTQVTVSS | high polyreactivity
25 | QVQLVESGGGLVQAGGSLRLSCAASGTFSPYAMGWYRQAPGKESELVAVITSNTGRTYADSVKGRFTISRDNAKKTVYLQMNSLKPEDTAVYYCAARSTYRHWYRTGSRFDYWGQGTQVTVSS | low polyreactivity
26 | QVQLVESGGGLVQAGGSLRLSCAASGTFSSNAMGWYRQAPGKERELVAAISSTGTTTYYADSVKGRFTISRDNAKNTVYLQMNSLKPEDTAVYYCAKYAYTSVHSWYYYWGQGTQVTVSS | high polyreactivity
27 | QVQLVESGGGLVQAGGSLRLSCAASGTFSYYAMGWYRQAPGKERELVATISWSGDSTYYADSVKGRFTISRDNAKNTVYLQMNSLNPEDTAVYYCNADHFQWGAGYDYWGQGTQVTVSS | low polyreactivity
28 | QVQLVESGGGLVQAGGSLRLSCAASGTFVYYAMGWYRQAPGKERELVAVISLNGGITYYADSVKGRFTISRDNAKNTVYLQMNSLKPEDTAVYYCNAQFYNSGWSFKSYYWGHGTQVTVSS | low polyreactivity
29 | QVQLVESGGGLVQAGGSLRLSCAASGTFYLYAIGWYRQAPGNERELVAALTRGGSTNYADSVKGRFTISRDNAKNTVDLQMNSLKPEDTAVYYCAAGSSRVFRKAGITRPSGLYYYWGQGTQVTVSS | high polyreactivity
30 | QVQLVESGGGLVQAGGSLRLSCAASGTFYLYAMGWYRQAPGKERELVAAISGSGSTNYADSVKGRFTISRDNAKNTVYLQMNSLKPEDTAVYYCAAYQRYDSVTGARYEYDYWGQGTQVTVSS | low polyreactivity
31 | QVQLVESGGGLVQAGGSLRLSCAASGTFYLYAMGWYRQAPGKERELVARINSSGSTNLRRLCEGALHNFTRQCEEYRLFTDEQPETGRYRVYYCNADTKRSSREYDYWGQGTQVTVSS | low polyreactivity
32 | QVQLVESGGGLVQAGGSLRLSCAASGTICYPYAMGWYRQAPGKERELVASISWSGGSTRYADSVKGRFTISRDNAKNTVYLQMNSLKPEDTAVYYCAARYILSKYGSGVRYNYWGQGTQVTVSS | high polyreactivity
33 | QVQLVESGGGLVQAGGSLRLSCAASGTIFQSNAMGWYRQAPGKERELVAAISSSGGRTYYADSVKGRFTISRDNAKNTVYLQMNSLKPEDTAVYYCADLGYPDGGWGQGTQVTVSS | low polyreactivity
34 | QVQLVESGGGLVQAGGSLRLSCAASGTIYYNTMGWYRQAPGKERELVASISRTGSTKYADSVKGRFTISRDNAKNTVYLQMNSLKPEDTAVYYCAADYLAFREGAVWLYDYWGQGTQVTVSS | high polyreactivity
35 | QVQLVESGGGLVQAGGSLRLSCAASGTMGSYRQAPGKERELVAAISQSGGSTYYADSVKGRFTISRDNAKNTVYLQMNSLKPEDTAVYYCAVDPRYGHPRRDYWGQGTQVTVSS | low polyreactivity
36 | QVQLVESGGGLVQAGGSLRLSCAASGTMPGYAMGWYRQAPGKERELVAAITWSDDSTFYADSVKGRFTISRDNAKNTVYLQMNSLKPEDTAVYYCAAEYVVSTQEFDYCGQGTQVTVSS | low polyreactivity
37 | QVQLVESGGGLVQAGGSLRLSCAASGTNFRYYTMGWYRQAPGKERELVAAITYSGGTTYYADSVKGRFTISRDNAKNTVYLQMNSLKPEDTAVYYCAATFQANYFSGYYTVYLSDYWGQGTQVTVSS | low polyreactivity
38 | QVQLVESGGGLVQAGGSLRLSCAASGTTFARNAMGWYRQAPGKERELVAVISYSGGSSYADSVKGRFTISRDNAKNTVYFHMKSLKPEVTAVYYCAARAWYPSRYDFWGQGTQVIVSS | high polyreactivity
39 | QVQLVESGGGLVQAGGSLRLSCAASGTTFAYNAMGWYIQAPGKEREMVAAISTSGGSTNYADSVKGRYTISRDNAMNTVYLQMNSLKPEDTAVYYCAARPKTPSITRYGYWGQGTQVTVSS | high polyreactivity
40 | QVQLVESGGGLVQAGGSLRLSCAASGTTFCSYAMGRYRQAPGKEREFVAAISSSDDSTYYADSVKGRFTISRDYAKNTVYLQMNSLKPEDTAVYYCAAAQRVNHVWYDYWGQGTQVTVSS | low polyreactivity
41 | QVQLVESGGGLVQAGGSLRLSCAASGTTFGGNSMGWYRQAPGKERELVAAIDSGGSTYADSVKGRFTISRDNAKNTVYLQMNSLKPEDTAVYYCAAVWEFVHYWRFDYWGQGSQVTVSS | low polyreactivity
42 | QVQLVESGGGLVQAGGSLRLSCAASGTTFGINAMGWYRQAPGKERELVASITRRGGSTYYADSVKGRFTISRDNAKNTVYLQMNSLKPEDTAVYYCNKTYRYGTPLYDYWGQGTQVTVSS | high polyreactivity
43 | QVQLVESGGGLVQAGGSLRLSCAASGTTFGPNAMGWYRQAPGTERELVAAIRWRGGSTYYADSVQGRFTIARDNAKNTVYLQMNSLKPEDTAVYYCADTRYSWHNRVSRRHRYDYWGQGTQVTVSS | high polyreactivity
